Test results published in US9688764B2, “Methods of treating breast cancer by administering anti-human prolactin receptor (PRLR) antibodies” (REGENERON PHARMACEUTICALS, INC., priority 2013, dated 2017).

B1: H1H6953N-DM1 (conjugate)
VH: EVQLLESGGGLVQPGGTLRLSCAASGFTFSAYAMSWVRQAPGKGLEWVSSINVRAGDTYYADSVKGRFTISRDNSKNTLFLLMNSLRAEDTAAYYCAKARYSSNWGFDFWGQGTLVTVSS
VL: DIVMTQSPDSLTVSLGARTTINCQSSQTILHSSNNHNYLAWYQQKPGLPPKLLIYWSSTRESGVPDRFSGSGSGTDFTLTISSLQAEDVAIYYCQQYSNTPYTFGQGTKLEIN
B2: H1H6958N2-DM1: anti-PRLR antibody H1H6958N2 conjugated to DM1 through an SMCC linker (conjugate)
VH: QVQLVESGGGVVQPGRSLRLSCGASGFTFRNYGMQWVRQGPGKGLEWVTLISFDGNDKYYADSVKGRFTISRDNSKNTLFLQMNSLRTEDTAVYYCARGGDFDYWGQGTLVTVSS
VL: DIQMTQSPSSLSASVGDRVTITCRASQDIRKDLGWYQQKPGKAPKRLIYAASSLHSGVPSRFSGSGSGTEFTLTISSLQPEDFATYYCLQHNSYPMYTFGQGTKLEIK

How the values were obtained:
MCF7/hPRLR/hErbB2 cells = assay: Cell viability (cell kill) assay; type: cell-based, human; conditions: MCF/PRLR + ErbB2; Table 17
Text: (§1) PRLR-overexpressing cells, including HEK293, PC3, MCF7 and NCI-N87, were generated to assess the ability of anti-PRLR conjugated antibodies to reduce cell viability. For comparative purposes, PC3 and T47D cells with overexpressed ErbB2 were also generated, as well as an MCF7 cell line over-expressing both hPRLR and hErbB2. Briefly, Lipofectamine® 2000-mediated transfection methodology was utilized to generate HEK293 cells expressing human PRLR (HEK293/hPRLR) or human ErbB2 (HEK293/hErbB2). Lipofectamine LTX with Plus Reagent was used to generate PC3 cells expressing human PRLR (PC3/hPRLR) or human ErbB2 (PC3/hErbB2). Lentiviral-mediated transduction was utilized to generate MCF7 cells expressing human PRLR (MCF7/hPRLR), NCI-N87 cells expressing human PRLR (NCI-N87/hPRLR), T47D cells over-expressing human ErbB2 (T47D/hErbB2), and MCF7 cells expressing both human PRLR and human ErbB2 (MCF7/hPRLR/hErbB2). All lines were selected for at least two weeks in complete growth media plus appropriate selection reagents. Stably expressing populations were enriched for PRLR expression via FACS using the anti PRLR antibody Control I.
(§2) Next, the ability of anti-PRLR-DM1 antibody-drug conjugates (i.e., anti-PRLR antibodies conjugated to DM1 via a non-cleavable linker [SMCC]) to reduce cell viability was determined using in vitro cell based assays. Cells were seeded in PDL-coated 96 well plates at 1500 to 10000 cells per well in complete growth media and allowed to grow overnight. For cell viability curves, ADCs or free DM1 (as the methyl disulfide derivative DM1-SMe) were added to the cells at final concentrations ranging from 500 nM to 5 pM and incubated for 3 days. The 293, PC3 and T47D cells were incubated with CCK8 (Dojindo, Rockville, Md.) for the final 1-3 hours and the absorbance at 450 nm (OD450) was determined on a Flexstation3 (Molecular Devices, Sunnyvale, Calif.). MCF7 cells were treated with Hoechst 33342 nuclear stain while being fixed with 4% formaldehyde. Images were acquired on the ImageXpress micro XL (Molecular Devices, Sunnyvale, Calif.) and nuclear counts were determined via Columbus image analysis software (Perkin Elmer, Shelton, Conn.). Background OD450 values (PC3, 293, and T47D) or nuclear counts (MCF7) from digitonin (40 nM) treated cells was subtracted from all wells and viability was expressed as a percentage of the untreated controls. IC50 values were determined from a four-parameter logistic equation over a 10-point response curve (GraphPad Prism).
(§3) The potency of anti-PRLR conjugated antibodies compared with a similarly conjugated antibody to the co-expressed ErbB2 cell surface target was also assessed. Both PRLR and ErbB2 are expressed in a majority of breast cancers, and anti-ErbB2 antibodies conjugated to DM1 have shown clinical efficacy in targeting ErbB2 (+) breast cancer (Hurvitz et al; 2013).

NCI-N87/hPRLR cells = assay: Cell viability (cell kill) assay; type: cell-based, human; conditions: NCI-N87/PRLR; Table 17
Text: as §1, §2, §3

PC3/hErbB2 cells = assay: Cell viability (cell kill) assay; type: cell-based, human; conditions: PC3/ErbB2; Table 15
Text: as §1, §2, §3

T47D/hErbB2 cells = assay: Cell viability (cell kill) assay; type: cell-based, human; conditions: T47D/ErbB2; Table 16
Text: as §1, §2, §3

NCI-N87 cells = assay: Cell viability (cell kill) assay; type: cell-based; conditions: Table 17
Text: as §1, §2
The potency of anti-PRLR conjugated antibodies compared with a similarly conjugated antibody to the co-expressed ErbB2 cell surface target was also assessed. […]

T47D#11 tumors = assay: Tumor growth inhibition in xenograft-bearing mice; type: in vivo, CB17 SCID mice; conditions: multi-dose, 5 and 15 mg/kg
Text: Briefly, 20×10^6 MCF7/PRLR cells (ATCC HTB-22 transfected with full length hPRLR as previously described) were implanted subcutaneously into the left mammary fat pad of female NCr nude mice. In other studies, 10×10^6 PC3/PRLR (ATCC CRL-1435 transfected with full length hPRLR as previously described) were implanted subcutaneously into the left flank of male SCID mice. Additionally, 10×10^6 parental T47D (ATCC HTB-133) or […] T47D#11 cells (ATCC HTB-133 serially passaged in vivo as described below) were subcutaneously implanted into the left flank of female CB17 SCID mice. All mice were obtained from Taconic (Hudson, N.Y.). Each bolus of cells was supplemented with a 90-day estrogen release pellet (1.7 mg/pellet; Innovative Research America, Sarasota Fla.). Once tumors had reached an average volume of 250 mm^3, mice were randomized into groups of seven and dosed with anti-PRLR antibody-drug conjugates of the invention or control reagents. Control reagents included PBS vehicle, free methyl-disulfide DM1 (DM1-SMe) and isotype Control 1-DM1.
In multi-dose studies, mice were dosed once a week for a total of three weeks with tumor volumes and body weights being monitored twice weekly throughout the study. Test ADCs were dosed at 5 and/or 15 mg/kg in the multi-dose studies. In single-dose studies, mice received a single dose of test ADC, and tumor volumes and body weights were monitored twice weekly throughout the study. Test ADCs were dosed at 1, 2.5, 5, and 15 mg/kg in the single-dose studies. Average tumor size as well as tumor growth inhibition relative to the vehicle treated group were calculated for each group. Tumors were measured with calipers twice a week until the average size of the vehicle group reached 1000 mm^3. Tumor size was calculated using the formula (length×width^2)/2. Tumor growth inhibition was calculated according to the following formula: (1−((Tfinal−Tinitial)/(Cfinal−Cinitial)))*100, where T (treated group) and C (control group) represent the mean tumor mass on the day the vehicle group reached 1000 mm^3. […] Results are summarized in Tables 21-25 (multi-dose) and Table 26 (single dose). (NT=not tested in the particular experiment shown).

Row | Molecule | IC50 (MCF7/hPRLR/hErbB2 cells) [nM] | IC50 (NCI-N87/hPRLR cells) [nM] | IC50 (PC3/hErbB2 cells) [nM] | % Kill (T47D/hErbB2 cells) [%] | IC50 (T47D/hErbB2 cells) [nM] | % Kill (NCI-N87 cells) [%] | IC50 (NCI-N87 cells) [nM] | effect on T47D#11 tumor growth (T47D#11 tumors)
1 | B1 | 0.33 | 2.9 | 80 | 80 | 2.4 | 83 | 90 | –
2 | B2 | – | – | – | – | – | – | – | potently inhibited tumor growth
